Results published in the domain aggregation screens of Martell et al. (2025).

Test: soluble fraction after stress (log2 fold change); higher = more stays soluble; pooled small domains, quantitative proteomics
Conditions: stress: 50 degC
Summary of the method: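 Quantitative proteomics served as the high-throughput read-out for pooled custom libraries of small protein domains. Each was stressed at 50°C. Aggregation propensity is expressed as the base-two log fold change in soluble protein after stress. A higher value means a larger share of the protein remains in solution.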

| Sequence | soluble fraction (log2) |
| --- | --- |
| HMGPNYYDILEIPTDASPSEITQAFRKKALEWHPDKNPNNLEEATSRFIEIVEAYRVLSSKDSKLQYDTG | 0.0242 |
| HMGAGLLEPEPLKIEIQETQERLQKLQKALERDTETADSKERIKRAIEAHKARISQLQGLIE | 0.0635 |
| HMDGDFGMNLDWQPSEHFPTLARQAGIPADHITAEAIAEFRSYWIGQGKAMTQYQWDHKLLTNLKATKTR | -1.14 |
| HMSEFSDRFRLLKDESGATLKELSEQLDITVPNLSYYMKGREPSYDILIKIADYFGVTTDWLIGRTDER | -0.547 |
| HMNPSVSSDERILLQKALGILSAEQKQIVMLHAVAGIKHREIAKLLDMPIATVLSKYSRAVNKLRHAMEA | -0.423 |
| HMTVLTDEIKVILISYIKENDFKKKHGNRKMMMTAQDMYDELVEKGYKISYPTVTQYVQKYRENETT | -1.27 |
| HMAAVSSHAVKQRIRSLIQAEDPASPLSDEALRLALSALGVEVSRRAVAKYRTSMDIPASSQRKK | -0.252 |
| HMADENIELRKAGLKVTLPRVKILQILEAAKEPHMSAEDVYKALMEANEEVGLATVYRVLTQFESAGL | -0.267 |
| HMTKEEIVVNWLPRYTKRNLEDFGEYILLTNFNKYVEIFAEKFNVPILGRDANMISASAEGITIIN | -0.191 |
| HMKKTITISNYINVRDFATMSELPVNSILSVLMKNGIFVSLNEKIDFDTAWLVGSELGLEVKQKQG | -0.214 |
| HMQNEIQQLAIDLIARAHKSGASDIHIVDTGTYTRIKFRVLGLLREDSQMEAETGRQMISTIYGILG | -0.135 |
| HMQFAEIPNFSEMALQILRLQADGLSITKIAEALHMNPRTVKYHAQENYRKLQASNKSEALLAARNLNL | -1.3 |
| HMQAITVNNEGKIFLNTIPVTLEELSSKLESLKSSTPEFPVVIRGDSGSQYQGIMDVLNVVGRLGITQIGL | -0.246 |
| HMDRTLTYTVSIEESDLRADQFLSRRGFSSHLLTRLRKNMEHLLINGTPSRTNTHLHEGDILTVHIVEE | -0.479 |
| HMDDATDLPYQEFRTQVSDGQVKIAQFNNNTGKITFESISGDKFKTSGPLELSSDDERLFLENIEDFKFFT | 0.104 |
| HMILALAISSEEDDARIYATYADRLREAYPASARVFEGMVDEEHEHRRRLIDLFQRRFGDTIPLVRREHV | -0.61 |
| HMLETADDAKRFLGAIISEKKAENLLRVYPDIIERIVAGKPVDLSLVKGIKQKTFDKLRQKVISHYSMY | 0.119 |
| HMGPSVGMTVGEMERDLIFRTLETVGDNRTKAADMLGISIRTLRNKLNEYREAGFEWPRKAG | 0.00867 |
| HMDDPLSQLTPREREVLELMASGASNQGIADALVITVRAVEKYVSSIFGKLGLPSTGSESRRVLAVLTFLR | -0.635 |

| Sequence | soluble fraction (log2) |
| --- | --- |
| HMTRDGMTKEAFDSLLEDIMNILLDNGLKATTMGSIAKSLKMSKRTLYEIFSSKSQMVEEAIIASHTKMM | 0.15 |
| HMAGPAGASEVANARDGDDETPLHMAARGGYPGIVRMLLAAGAKADAKSAAGLFPWNYAEDGSELHALLPR | 0.0684 |
| HMSSLREQVADALRAHLVSGRMRPGVLYSAPKLAAEFGVSATPVREAMLDLVSEGLVDVVRNKGFRVT | -0.344 |
| HMTVKRNILQELLKTAFKHPEDFRPSKTFYGETGIGQKRFWALYYGHKAVTQKEYYAVADYLG | -0.0349 |
| HMLSLGQQIRNHVLSRIESGEWPEGSRIPSEAKLVELLGASRMTIHIALRDLSAEGVLLRKQGAGTFVAPR | -2.47 |
| HMKVRVFIERSNDGYSAYMPDDNNLPFGLTGDGKTAQEAMQDFLLARDEMKEFFIEEGKEFPEVEFDFS | -1.35 |
| HMPASVSAIRKYLGGGSFKGVGPALAKRIVDAFGEYTIETIENDPKQLAKVKGVSEKMALEINTQ | -0.0317 |
| HMLSFSEAERAVLSLLNRRPDLSAKALASELAVSARTVERYLQSLQQKGKLLRVGAKKGGYWQV | -0.478 |
| HMEISTENESFSNGLLEHPHYTRPPVWEDLKIPAVLMSGHHGKVAEWRKQQSEALTQERRPDLWEAFG | -0.0409 |
| HMNQIATSTQAIITTLSFLNTSSIFKLPVGDTASRPTGVSPGTLRFNSQEDSAEIYKADDGTGSAGWTEVA | 0.0743 |
| HMASEVEVPNVYGMPSSLAERELSAVGLLADYRSRTGTGQQPGTVVHVKPDAGTVVSRGSTVVLFIA | 0.00535 |
| HMSVSVNAPMPGNILDVRAKTGESIQKGQVIVILEAMKMENEIMAPQDGKISSINTSKGSTVNSGDLLFTM | -0.155 |
| HMEPTAEQLKAIRQFASVNGRSWKSELRYLWETGAYHRAALGGADPGYLQQVRNQFGPGWLRAFKISK | -0.852 |
| HMGGLAEIILNAIEIEGGFLPITDKSAPELIQSRLGMSKKAFKEAVGTLYKNRDIAIEPNGLRKI | 0.0577 |
| HMVSYTLPTLHTGKNWYVDFTAYDPAEQKMKRKKYMLDGISKITERRKRAVDIIATVTARLRSGWNPWA | -2.7 |
| HMDYYASVDQVWRELGLAGPARRALIDDGLFKLSDLRKTSLAAVKELHGMGPNAIRILTTEMKKADLSFR | -2.25 |
| HMHSDWITWWYLKDKRFDDDYSLWDRQPVHPEYFEVVKEFKAPPESNPGGLDEVKRILRTYIPDAFAP | -0.976 |
| HMSSVVARRARIATLVVETSVASQEELGRLLADEGITVTQATLSRDLDALGAVKVLSADGGTRYRIPGQ | -0.778 |
| HMVIQRQIPPLVTRMLDGLEQFIQLDMPFDLDTRLGNIEAVRANMDRSDVTSAEAYRQVLELYSIELQ | -0.2 |
